{"source": "paper PMC5177502", "molecular_target": "Human recombinant FGF 1 (fibroblast growth factor 1) (human) (UniProt P05230)", "assay": "native MS"}
{"substance": "Human recombinant FGF 1 (fibroblast growth factor 1) (from UniProt P05230 16-155) (natural protein)", "values": [{"measurement": "stoichiometry N", "result": 2}]}
